Measured values published in patent publication US20220251236A1 (Boehringer Ingelheim, published 2022).

T1: EGF1+2
T1 construct: also called Hu DLL3 EGF1+2 on HEK293 cells
T1 membrane-anchored DLL3 subdomain construct: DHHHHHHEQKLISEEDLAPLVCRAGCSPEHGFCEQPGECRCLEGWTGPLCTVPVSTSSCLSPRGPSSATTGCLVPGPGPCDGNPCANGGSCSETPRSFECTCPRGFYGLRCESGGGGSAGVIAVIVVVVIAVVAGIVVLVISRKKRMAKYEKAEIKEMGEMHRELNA

T2: EGF6+MEMBRANE PROXIMAL PEPTIDE
T2 construct: also called Hu DLL3 EGF6+membrane proximal peptide on HEK293 cells
T2 membrane-anchored DLL3 subdomain construct: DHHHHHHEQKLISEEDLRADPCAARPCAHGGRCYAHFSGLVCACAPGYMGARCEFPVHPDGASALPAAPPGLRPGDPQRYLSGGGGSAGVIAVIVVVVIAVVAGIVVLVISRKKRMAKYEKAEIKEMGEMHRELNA

T3: EGF2+3
T3 construct: also called Hu DLL3 EGF2+3 on HEK293 cells
T3 membrane-anchored DLL3 subdomain construct: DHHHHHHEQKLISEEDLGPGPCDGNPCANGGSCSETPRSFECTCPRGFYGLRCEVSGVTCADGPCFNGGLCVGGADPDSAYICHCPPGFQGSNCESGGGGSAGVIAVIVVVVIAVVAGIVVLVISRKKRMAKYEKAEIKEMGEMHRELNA

T4: EGF3+4
T4 construct: also called Hu DLL3 EGF3+4 on HEK293 cells
T4 membrane-anchored DLL3 subdomain construct: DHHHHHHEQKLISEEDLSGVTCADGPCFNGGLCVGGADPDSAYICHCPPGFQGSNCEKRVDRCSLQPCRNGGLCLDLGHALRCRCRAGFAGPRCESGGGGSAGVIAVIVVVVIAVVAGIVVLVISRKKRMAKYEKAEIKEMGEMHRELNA

T5: EGF5+6
T5 construct: also called Hu DLL3 EGF5+6 on HEK293 cells
T5 membrane-anchored DLL3 subdomain construct: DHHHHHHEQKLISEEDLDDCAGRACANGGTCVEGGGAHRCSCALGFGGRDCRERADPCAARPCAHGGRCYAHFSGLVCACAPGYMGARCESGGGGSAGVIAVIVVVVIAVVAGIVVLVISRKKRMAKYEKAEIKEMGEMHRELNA

T6: EGF4+5
T6 construct: also called Hu DLL3 EGF4+5 on HEK293 cells
T6 membrane-anchored DLL3 subdomain construct: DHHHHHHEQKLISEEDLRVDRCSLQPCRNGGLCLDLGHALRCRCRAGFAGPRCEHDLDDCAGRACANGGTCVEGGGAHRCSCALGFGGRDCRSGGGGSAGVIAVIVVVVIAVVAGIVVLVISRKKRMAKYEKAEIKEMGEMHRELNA


Legend:
[1] = target: T7, Human CD3 E+G HuFc-6xHis (human); experiment: SPR (ProteOn XPR36), HuCD3E_HuCD3G-Fc amine-coupled, bispecific as analyte, Example 4B
T7 construct: also called hu CD3εγ-Fc
T7 sequence (chain, as listed by the source limits assumed): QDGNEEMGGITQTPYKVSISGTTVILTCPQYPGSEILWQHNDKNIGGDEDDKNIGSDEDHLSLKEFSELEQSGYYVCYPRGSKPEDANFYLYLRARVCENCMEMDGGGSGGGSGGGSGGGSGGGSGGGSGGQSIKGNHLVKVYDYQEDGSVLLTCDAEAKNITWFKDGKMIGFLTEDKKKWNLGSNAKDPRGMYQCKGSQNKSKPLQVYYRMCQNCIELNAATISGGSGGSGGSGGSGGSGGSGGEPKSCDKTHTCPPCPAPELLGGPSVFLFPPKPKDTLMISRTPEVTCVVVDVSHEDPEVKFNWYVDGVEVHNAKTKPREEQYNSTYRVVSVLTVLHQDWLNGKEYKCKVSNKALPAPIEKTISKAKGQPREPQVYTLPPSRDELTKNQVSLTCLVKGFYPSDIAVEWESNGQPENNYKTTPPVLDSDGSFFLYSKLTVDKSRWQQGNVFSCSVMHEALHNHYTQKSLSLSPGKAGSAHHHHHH
Procedure, shortened: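 Human CD3ε/γ-Fc fusion is amine-coupled to the chip at pH 4.5. Anti-DLL3/CD3 bispecifics are injected as analyte in PBS-T-EDTA at 30 μl/min, with 600 s association and 1800 s dissociation. Binding kinetics are measured by SPR.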

[2] = target: T1, EGF1+2; experiment: flow cytometry on HEK293 cells expressing the DLL3 subdomain construct, PE anti-human secondary, control: secondary antibody only
Procedure, shortened: (§1)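 Binders tested on HEK293 cells displaying the DLL3 subdomain construct; bound molecules detected by flow cytometry using PE-conjugated anti-human secondary antibody. Negative control: cells with secondary antibody only.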

[3] = target: T2, EGF6+MEMBRANE PROXIMAL PEPTIDE; experiment: as above
Procedure, shortened: as §1

[4] = target: T3, EGF2+3; experiment: as above
Procedure, shortened: as §1

[5] = target: T4, EGF3+4; experiment: as above
Procedure, shortened: as §1

[6] = target: T5, EGF5+6; experiment: as above
Procedure, shortened: as §1

[7] = target: T6, EGF4+5; experiment: as above
Procedure, shortened: as §1

Binder | Kd [1] | binding result [2] | binding result [3] | binding result [4] | binding result [5] | binding result [6] | binding result [7]
DLL3#17/CD3#1 (bispecific antibody, human IgG1, kappa, lambda, L234A L235A, Heterodimer of one DLL3 chain and one CD3 chain (scFab-Fc, knob-in-hole)) chain 1: DIQMTQSPASLAASVGETVTITCRASENIYYSLAWYQQKQGKSPQLLIYNTNSLEDGVPSRFSGSGSGTQYSMKINSMQPEDTATYFCKQAYDFPLTFGAGTKLELKRTVAAPSVFIFPPSDEQLKSGTASVVCLLNNFYPREAKVQWKVDNALQSGNSQESVTEQDSKDSTYSLSSTLTLSKADYEKHKVYACEVTHQGLSSPVTKSFNRGECGGGGSEGKSSGSGSESKSTEGKSSGSGSESKSTGGGGSQIQLQQSGPEVVKPGASVKISCKASGYTFISYYIHWVKQRPGQGLEWIGWIYPGDGSTNNNEKFKGKTTLTADKSSSTAYMLLSSLTSEDSAVYFCARGEGNAMDDWGQGTSVTVSSASTKGPSVFPLAPSSKSTSGGTAALGCLVKDYFPEPVTVSWNSGALTSGVHTFPAVLQSSGLYSLSSVVTVPSSSLGTQTYICNVNHKPSNTKVDKRVEPKSCDKTHTCPPCPAPEAAGGPSVFLFPPKPKDTLMISRTPEVTCVVVDVSHEDPEVKFNWYVDGVEVHNAKTKPREEQYNSTYRVVSVLTVLHQDWLNGKEYKCKVSNKALPAPIEKTISKAKGQPREPQVYTLPPSREEMTKNQVSLWCLVKGFYPSDIAVEWESNGQPENNYKTTPPVLDSDGSFFLYSKLTVDKSRWQQGNVFSCSVMHEALHNHYTQKSLSLSPG chain 2: EAVVTQEPSLTVSPGGTVTLTCRSSTGAVTTSNYANWVQEKPGQLPRGLIGGTNKRAPWVPARFSGSLLGGKAALTLSGAQPEDEAEYFCALWYSNLWVFGGGTKLTVLGQPKAAPSVTLFPPSSEELQANKATLVCLISDFYPGAVKVAWKADGSPVNTGVETTTPSKQSNNKYAASSYLSLTPEQWKSHRSYSCQVTHEGSTVEKTVAPAECSGGGGSEGKSSGSGSESKSTEGKSSGSGSESKSTGGGGSEVQLVESGGGLVQPGGSLKLSCAASGFTFNTYAMNWVRQAPGKGLEWVARIRSKYNNYATYYADSVKDRFTISRDDSKNTAYLQMNNLKTEDTAVYYCVRHGNFGNSYVSWFAYWGQGTLVTVSAASTKGPSVFPLAPSSKSTSGGTAALGCLVKDYFPEPVTVSWNSGALTSGVHTFPAVLQSSGLYSLSSVVTVPSSSLGTQTYICNVNHKPSNTKVDKRVEPKSCDKTHTCPPCPAPEAAGGPSVFLFPPKPKDTLMISRTPEVTCVVVDVSHEDPEVKFNWYVDGVEVHNAKTKPREEQYNSTYRVVSVLTVLHQDWLNGKEYKCKVSNKALPAPIEKTISKAKGQPREPQVYTLPPSREEMTKNQVSLSCAVKGFYPSDIAVEWESNGQPENNYKTTPPVLDSDGSFFLVSKLTVDKSRWQQGNVFSCSVMHEALHNRFTQKSLSLSPG | 2 nM | no binding (tested: 1.6 nM) | no binding (tested: 1.6 nM) | no binding (tested: 1.6 nM) | no binding (tested: 1.6 nM) | no binding (tested: 1.6 nM) | no binding (tested: 1.6 nM)
DLL3#18/CD3#1 (bispecific antibody, human IgG1, kappa, lambda, L234A L235A, Heterodimer of one DLL3 chain and one CD3 chain (scFab-Fc, knob-in-hole)) chain 1: DIQMTQSPASLAASVGETVTITCRASENIYYSLAWYQQKQGKSPQLLIYNANSLEDGVPSRFSGSGSGTQYSMKINNMQPEDTATYFCKQAYDVPLTFGAGTKLELKRTVAAPSVFIFPPSDEQLKSGTASVVCLLNNFYPREAKVQWKVDNALQSGNSQESVTEQDSKDSTYSLSSTLTLSKADYEKHKVYACEVTHQGLSSPVTKSFNRGECGGGGSEGKSSGSGSESKSTEGKSSGSGSESKSTGGGGSQVQLQQSGPDLVKPGASVKMSCEASGYTFTAYFIHWVKQKPGQGLEWIGYIDPFNDDTNYNVKFKGKATLTSDTSSSIAYMELSSLTSEDSSFYYCARGTSATLDYWGHGTTLTVSSASTKGPSVFPLAPSSKSTSGGTAALGCLVKDYFPEPVTVSWNSGALTSGVHTFPAVLQSSGLYSLSSVVTVPSSSLGTQTYICNVNHKPSNTKVDKRVEPKSCDKTHTCPPCPAPEAAGGPSVFLFPPKPKDTLMISRTPEVTCVVVDVSHEDPEVKFNWYVDGVEVHNAKTKPREEQYNSTYRVVSVLTVLHQDWLNGKEYKCKVSNKALPAPIEKTISKAKGQPREPQVYTLPPSREEMTKNQVSLWCLVKGFYPSDIAVEWESNGQPENNYKTTPPVLDSDGSFFLYSKLTVDKSRWQQGNVFSCSVMHEALHNHYTQKSLSLSPG chain 2: EAVVTQEPSLTVSPGGTVTLTCRSSTGAVTTSNYANWVQEKPGQLPRGLIGGTNKRAPWVPARFSGSLLGGKAALTLSGAQPEDEAEYFCALWYSNLWVFGGGTKLTVLGQPKAAPSVTLFPPSSEELQANKATLVCLISDFYPGAVKVAWKADGSPVNTGVETTTPSKQSNNKYAASSYLSLTPEQWKSHRSYSCQVTHEGSTVEKTVAPAECSGGGGSEGKSSGSGSESKSTEGKSSGSGSESKSTGGGGSEVQLVESGGGLVQPGGSLKLSCAASGFTFNTYAMNWVRQAPGKGLEWVARIRSKYNNYATYYADSVKDRFTISRDDSKNTAYLQMNNLKTEDTAVYYCVRHGNFGNSYVSWFAYWGQGTLVTVSAASTKGPSVFPLAPSSKSTSGGTAALGCLVKDYFPEPVTVSWNSGALTSGVHTFPAVLQSSGLYSLSSVVTVPSSSLGTQTYICNVNHKPSNTKVDKRVEPKSCDKTHTCPPCPAPEAAGGPSVFLFPPKPKDTLMISRTPEVTCVVVDVSHEDPEVKFNWYVDGVEVHNAKTKPREEQYNSTYRVVSVLTVLHQDWLNGKEYKCKVSNKALPAPIEKTISKAKGQPREPQVYTLPPSREEMTKNQVSLSCAVKGFYPSDIAVEWESNGQPENNYKTTPPVLDSDGSFFLVSKLTVDKSRWQQGNVFSCSVMHEALHNRFTQKSLSLSPG | 3 nM | no binding (tested: 1.6 nM) | no binding (tested: 1.6 nM) | no binding (tested: 1.6 nM) | no binding (tested: 1.6 nM) | no binding (tested: 1.6 nM) | no binding (tested: 1.6 nM)
